# Test results taken from PMC9482650, “Quantitative fragmentomics allow affinity mapping of interactomes” (Nature Communications, 2022).
# T1: USH1C_2, Q9Y6N9
# T1 sequence (Q9Y6N9 206-303, limits assumed, looked up): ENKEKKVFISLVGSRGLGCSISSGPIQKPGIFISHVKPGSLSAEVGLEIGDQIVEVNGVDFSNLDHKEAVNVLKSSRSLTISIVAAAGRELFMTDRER
# T2: USH1C_1, Q9Y6N9
# T2 sequence (Q9Y6N9 82-179, limits assumed, looked up): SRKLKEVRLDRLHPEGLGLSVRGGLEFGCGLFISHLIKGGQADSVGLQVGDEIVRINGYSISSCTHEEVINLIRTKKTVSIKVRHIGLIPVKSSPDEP
# T3: SIPA1L3, O60292
# T3 sequence (O60292 961-1052, limits assumed, looked up): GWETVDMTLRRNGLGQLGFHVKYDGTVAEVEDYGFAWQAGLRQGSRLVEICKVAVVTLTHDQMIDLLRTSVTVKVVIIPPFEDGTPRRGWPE
# T4: PREX2_2, Q70Z35
# T4 sequence (Q70Z35 672-764, limits assumed, looked up): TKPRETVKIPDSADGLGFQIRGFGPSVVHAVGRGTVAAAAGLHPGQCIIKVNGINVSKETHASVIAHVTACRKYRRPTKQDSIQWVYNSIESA
# T5: MPP1, Q00013
# T5 sequence (Q00013 66-162, limits assumed, looked up): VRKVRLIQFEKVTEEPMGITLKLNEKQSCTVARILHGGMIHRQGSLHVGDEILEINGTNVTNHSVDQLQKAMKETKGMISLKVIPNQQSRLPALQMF
# T6: PDZD11, Q5EBL8
# T6 sequence (Q5EBL8 42-139, limits assumed, looked up): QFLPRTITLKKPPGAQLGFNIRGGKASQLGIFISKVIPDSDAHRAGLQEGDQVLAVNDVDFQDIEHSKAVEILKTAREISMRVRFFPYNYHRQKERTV
# T7: PDZD7_1, Q9H5P4
# T7 sequence (Q9H5P4 81-178, limits assumed, looked up): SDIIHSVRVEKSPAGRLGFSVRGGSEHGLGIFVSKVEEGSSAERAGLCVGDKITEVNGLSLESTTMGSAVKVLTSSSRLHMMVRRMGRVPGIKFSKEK
# T8: SHROOM4, Q9ULL8
# T8 sequence (Q9ULL8 5-102, limits assumed, looked up): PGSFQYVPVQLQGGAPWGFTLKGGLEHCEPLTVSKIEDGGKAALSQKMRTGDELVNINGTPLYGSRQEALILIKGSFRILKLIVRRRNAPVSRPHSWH
# T9: MPP5, Q8N3R9
# T9 sequence (Q8N3R9 251-346, limits assumed, looked up): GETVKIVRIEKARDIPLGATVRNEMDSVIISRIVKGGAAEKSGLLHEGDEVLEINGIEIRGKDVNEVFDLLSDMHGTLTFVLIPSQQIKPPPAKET
# T10: PDZD7_2, Q9H5P4
# T10 sequence (Q9H5P4 205-303, limits assumed, looked up): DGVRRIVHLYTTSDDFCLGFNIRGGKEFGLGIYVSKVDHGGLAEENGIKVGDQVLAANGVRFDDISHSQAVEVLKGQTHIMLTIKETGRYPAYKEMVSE
# T11: TJP3_2, O95049
# T11 sequence (O95049 190-282, limits assumed, looked up): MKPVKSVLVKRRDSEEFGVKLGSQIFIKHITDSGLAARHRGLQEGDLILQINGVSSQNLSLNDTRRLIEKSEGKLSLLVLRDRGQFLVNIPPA
# T12: MPDZ_6, O75970
# T12 sequence (O75970 1003-1099, limits assumed, looked up): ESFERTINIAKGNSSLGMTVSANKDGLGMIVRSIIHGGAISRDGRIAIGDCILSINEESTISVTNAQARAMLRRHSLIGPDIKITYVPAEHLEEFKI
# T13: PTPN13_4, Q12923
# T13 sequence (Q12923 1783-1878, limits assumed, looked up): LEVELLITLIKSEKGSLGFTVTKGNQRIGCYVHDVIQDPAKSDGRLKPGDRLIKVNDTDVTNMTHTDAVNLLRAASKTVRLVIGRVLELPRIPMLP
# How the values were obtained:
# Experiment in all cases: holdup assay
# Design in all cases: key: below the threshold = too weak to quantify, mostly under pKd 3.1 to 4
# MAGI3_4, Q5TCQ9 = target: MAGI3_4, Q5TCQ9
# USH1C_2, Q9Y6N9 = target: T1, USH1C_2, Q9Y6N9
# MAGI3_6, Q5TCQ9 = target: MAGI3_6, Q5TCQ9
# USH1C_1, Q9Y6N9 = target: T2, USH1C_1, Q9Y6N9
# SIPA1L3, O60292 = target: T3, SIPA1L3, O60292
# MAGI1_3, Q96QZ7 = target: MAGI1_3, Q96QZ7
# PREX2_2, Q70Z35 = target: T4, PREX2_2, Q70Z35
# MPP1, Q00013 = target: T5, MPP1, Q00013
# PDZD11, Q5EBL8 = target: T6, PDZD11, Q5EBL8
# SDCBP_1, O00560 = target: SDCBP_1, O00560
# PTPN13_2, Q12923 = target: PTPN13_2, Q12923
# PDZD7_1, Q9H5P4 = target: T7, PDZD7_1, Q9H5P4
# AHNAK2, Q8IVF2 = target: AHNAK2, Q8IVF2
# SHROOM4, Q9ULL8 = target: T8, SHROOM4, Q9ULL8
# MPP5, Q8N3R9 = target: T9, MPP5, Q8N3R9
# PARD3B_3, Q8TEW8 = target: PARD3B_3, Q8TEW8
# DVL2, O14641 = target: DVL2, O14641
# PDZD7_2, Q9H5P4 = target: T10, PDZD7_2, Q9H5P4
# MAGI1_6, Q96QZ7 = target: MAGI1_6, Q96QZ7
# PARD3_1, Q8TEW0 = target: PARD3_1, Q8TEW0
# TJP3_2, O95049 = target: T11, TJP3_2, O95049
# PDLIM4, P50479 = target: PDLIM4, P50479
# MPDZ_6, O75970 = target: T12, MPDZ_6, O75970
# PDZRN4_2, Q6ZMN7 = target: PDZRN4_2, Q6ZMN7
# PTPN13_4, Q12923 = target: T13, PTPN13_4, Q12923
# [1] = plain residues with an end cap or a label only (N-terminal biotin on a linker: none)
# [2] = plain residues with an end cap or a label only (N-terminal biotin on a linker: ttds)
# Sequence of PTPN13_2, Q12923 (Q12923 1363-1462): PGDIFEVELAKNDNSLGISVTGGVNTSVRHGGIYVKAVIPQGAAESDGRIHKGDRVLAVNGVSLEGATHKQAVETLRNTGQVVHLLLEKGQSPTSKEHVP
# Sequence of SDCBP_1, O00560 (O00560 111-198): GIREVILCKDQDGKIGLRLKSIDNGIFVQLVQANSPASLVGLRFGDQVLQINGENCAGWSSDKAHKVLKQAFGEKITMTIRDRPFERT
# Sequence of PARD3_1, Q8TEW0 (Q8TEW0 264-372): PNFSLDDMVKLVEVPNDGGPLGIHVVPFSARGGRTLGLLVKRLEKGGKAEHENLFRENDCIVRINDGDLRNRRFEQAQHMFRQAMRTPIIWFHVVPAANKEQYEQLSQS
# Sequence of DVL2, O14641 (O14641 260-359): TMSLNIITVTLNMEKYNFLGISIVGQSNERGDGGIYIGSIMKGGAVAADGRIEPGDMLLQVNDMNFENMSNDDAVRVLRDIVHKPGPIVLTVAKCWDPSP
# Sequence of MAGI3_4, Q5TCQ9 (Q5TCQ9 716-815): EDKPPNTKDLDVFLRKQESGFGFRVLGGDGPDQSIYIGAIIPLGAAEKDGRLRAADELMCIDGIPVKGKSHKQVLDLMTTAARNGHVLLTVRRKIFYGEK
# Sequence of MAGI1_6, Q96QZ7 (Q96QZ7 1146-1238): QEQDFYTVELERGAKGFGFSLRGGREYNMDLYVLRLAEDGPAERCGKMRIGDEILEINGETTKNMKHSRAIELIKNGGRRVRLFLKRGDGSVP
# Sequence of PDZRN4_2, Q6ZMN7 (Q6ZMN7 389-498): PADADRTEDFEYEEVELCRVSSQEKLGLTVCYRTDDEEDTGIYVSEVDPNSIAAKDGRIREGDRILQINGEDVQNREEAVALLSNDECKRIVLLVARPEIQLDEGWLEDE
# Sequence of MAGI1_3, Q96QZ7 (Q96QZ7 638-725): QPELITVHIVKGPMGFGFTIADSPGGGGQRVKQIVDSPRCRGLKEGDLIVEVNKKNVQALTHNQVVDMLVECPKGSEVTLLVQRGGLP
# Sequence of PDLIM4, P50479 (P50479 1-83): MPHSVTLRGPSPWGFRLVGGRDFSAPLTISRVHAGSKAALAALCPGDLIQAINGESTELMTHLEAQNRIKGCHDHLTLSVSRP
# Sequence of AHNAK2, Q8IVF2 (Q8IVF2 108-193): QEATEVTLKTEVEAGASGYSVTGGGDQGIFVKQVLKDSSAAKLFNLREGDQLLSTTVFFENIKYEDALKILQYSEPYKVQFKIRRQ
# Sequence of MAGI3_6, Q5TCQ9 (Q5TCQ9 1014-1103): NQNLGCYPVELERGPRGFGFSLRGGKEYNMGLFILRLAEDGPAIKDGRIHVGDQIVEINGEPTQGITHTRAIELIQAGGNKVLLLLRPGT
# Sequence of PARD3B_3, Q8TEW8 (Q8TEW8 490-594): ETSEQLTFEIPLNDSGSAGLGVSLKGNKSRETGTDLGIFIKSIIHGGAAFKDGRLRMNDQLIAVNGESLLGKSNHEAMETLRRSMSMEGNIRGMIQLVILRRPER
binder,measurement,setting,value
"DSKPPLPPDEWV [MERS-E, K9N5R3]",pKd,"MAGI3_4, Q5TCQ9; [1]",below the threshold
same,pKd,"USH1C_2, Q9Y6N9; [1]",below the threshold
same,pKd,"MAGI3_6, Q5TCQ9; [1]",4.03
same,pKd,"USH1C_1, Q9Y6N9; [1]",below the threshold
same,pKd,"SIPA1L3, O60292; [1]",3.73
same,pKd,"MAGI1_3, Q96QZ7; [1]",below the threshold
same,pKd,"PREX2_2, Q70Z35; [1]",below the threshold
same,pKd,"MPP1, Q00013; [1]",below the threshold
same,pKd,"PDZD11, Q5EBL8; [1]",below the threshold
same,pKd,"SDCBP_1, O00560; [1]",4.12
same,pKd,"PTPN13_2, Q12923; [1]",4.35
same,pKd,"PDZD7_1, Q9H5P4; [1]",below the threshold
same,pKd,"AHNAK2, Q8IVF2; [1]",below the threshold
same,pKd,"SHROOM4, Q9ULL8; [1]",below the threshold
same,pKd,"MPP5, Q8N3R9; [1]",4.03
same,pKd,"PARD3B_3, Q8TEW8; [1]",below the threshold
same,pKd,"DVL2, O14641; [1]",below the threshold
same,pKd,"PDZD7_2, Q9H5P4; [1]",below the threshold
same,pKd,"MAGI1_6, Q96QZ7; [1]",4.66
same,pKd,"PARD3_1, Q8TEW0; [1]",below the threshold
same,pKd,"TJP3_2, O95049; [1]",below the threshold
same,pKd,"PDLIM4, P50479; [1]",3.83
same,pKd,"MPDZ_6, O75970; [1]",below the threshold
same,pKd,"PDZRN4_2, Q6ZMN7; [1]",3.75
same,pKd,"PTPN13_4, Q12923; [1]",4.11
"DPLTPSRSQL [DGKK, Q5KSL6]",pKd,"MAGI3_4, Q5TCQ9; [2]",below the threshold
same,pKd,"USH1C_2, Q9Y6N9; [2]",below the threshold
same,pKd,"MAGI3_6, Q5TCQ9; [2]",below the threshold
same,pKd,"USH1C_1, Q9Y6N9; [2]",below the threshold
same,pKd,"SIPA1L3, O60292; [2]",below the threshold
same,pKd,"MAGI1_3, Q96QZ7; [2]",below the threshold
same,pKd,"PREX2_2, Q70Z35; [2]",below the threshold
same,pKd,"MPP1, Q00013; [2]",below the threshold
same,pKd,"PDZD11, Q5EBL8; [2]",below the threshold
same,pKd,"SDCBP_1, O00560; [2]",below the threshold
same,pKd,"PTPN13_2, Q12923; [2]",4.4
same,pKd,"PDZD7_1, Q9H5P4; [2]",below the threshold
same,pKd,"AHNAK2, Q8IVF2; [2]",below the threshold
same,pKd,"SHROOM4, Q9ULL8; [2]",below the threshold
same,pKd,"MPP5, Q8N3R9; [2]",below the threshold
same,pKd,"PARD3B_3, Q8TEW8; [2]",below the threshold
same,pKd,"DVL2, O14641; [2]",4.14
same,pKd,"PDZD7_2, Q9H5P4; [2]",below the threshold
same,pKd,"MAGI1_6, Q96QZ7; [2]",below the threshold
same,pKd,"PARD3_1, Q8TEW0; [2]",below the threshold
same,pKd,"TJP3_2, O95049; [2]",below the threshold
same,pKd,"PDLIM4, P50479; [2]",below the threshold
same,pKd,"MPDZ_6, O75970; [2]",below the threshold
same,pKd,"PDZRN4_2, Q6ZMN7; [2]",4.05
same,pKd,"PTPN13_4, Q12923; [2]",below the threshold
"RTRQRNETQV [HPV51-E6, P26554]",pKd,"MAGI3_4, Q5TCQ9; [2]",below the threshold
same,pKd,"USH1C_2, Q9Y6N9; [2]",below the threshold
same,pKd,"MAGI3_6, Q5TCQ9; [2]",below the threshold
same,pKd,"USH1C_1, Q9Y6N9; [2]",below the threshold
same,pKd,"SIPA1L3, O60292; [2]",below the threshold
same,pKd,"MAGI1_3, Q96QZ7; [2]",below the threshold
same,pKd,"PREX2_2, Q70Z35; [2]",below the threshold
same,pKd,"MPP1, Q00013; [2]",5.81
same,pKd,"PDZD11, Q5EBL8; [2]",below the threshold
same,pKd,"SDCBP_1, O00560; [2]",below the threshold
same,pKd,"PTPN13_2, Q12923; [2]",below the threshold
same,pKd,"PDZD7_1, Q9H5P4; [2]",below the threshold
same,pKd,"AHNAK2, Q8IVF2; [2]",below the threshold
same,pKd,"SHROOM4, Q9ULL8; [2]",below the threshold
same,pKd,"MPP5, Q8N3R9; [2]",below the threshold
same,pKd,"PARD3B_3, Q8TEW8; [2]",below the threshold
same,pKd,"DVL2, O14641; [2]",4.59
same,pKd,"PDZD7_2, Q9H5P4; [2]",below the threshold
same,pKd,"MAGI1_6, Q96QZ7; [2]",below the threshold
same,pKd,"PARD3_1, Q8TEW0; [2]",below the threshold
same,pKd,"TJP3_2, O95049; [2]",below the threshold
same,pKd,"PDLIM4, P50479; [2]",below the threshold
same,pKd,"MPDZ_6, O75970; [2]",below the threshold
same,pKd,"PDZRN4_2, Q6ZMN7; [2]",below the threshold
same,pKd,"PTPN13_4, Q12923; [2]",below the threshold
"HRTCYLVTQL [ASIC3, Q9UHC3]",pKd,"MAGI3_4, Q5TCQ9; [2]",below the threshold
same,pKd,"USH1C_2, Q9Y6N9; [2]",below the threshold
same,pKd,"MAGI3_6, Q5TCQ9; [2]",below the threshold
same,pKd,"USH1C_1, Q9Y6N9; [2]",below the threshold
same,pKd,"SIPA1L3, O60292; [2]",below the threshold
same,pKd,"MAGI1_3, Q96QZ7; [2]",below the threshold
same,pKd,"PREX2_2, Q70Z35; [2]",below the threshold
same,pKd,"MPP1, Q00013; [2]",4.4
same,pKd,"PDZD11, Q5EBL8; [2]",below the threshold
same,pKd,"SDCBP_1, O00560; [2]",below the threshold
same,pKd,"PTPN13_2, Q12923; [2]",below the threshold
same,pKd,"PDZD7_1, Q9H5P4; [2]",below the threshold
same,pKd,"AHNAK2, Q8IVF2; [2]",below the threshold
same,pKd,"SHROOM4, Q9ULL8; [2]",below the threshold
same,pKd,"MPP5, Q8N3R9; [2]",below the threshold
same,pKd,"PARD3B_3, Q8TEW8; [2]",below the threshold
same,pKd,"DVL2, O14641; [2]",below the threshold
same,pKd,"PDZD7_2, Q9H5P4; [2]",below the threshold
same,pKd,"MAGI1_6, Q96QZ7; [2]",below the threshold
same,pKd,"PARD3_1, Q8TEW0; [2]",below the threshold
same,pKd,"TJP3_2, O95049; [2]",below the threshold
same,pKd,"PDLIM4, P50479; [2]",below the threshold
same,pKd,"MPDZ_6, O75970; [2]",below the threshold
same,pKd,"PDZRN4_2, Q6ZMN7; [2]",below the threshold
same,pKd,"PTPN13_4, Q12923; [2]",below the threshold
